Test results as given in US20230374132A1 (Innovent, published 2023).
Where two headings read alike, the source gives them in different places.

T1: human CLDN18.2 on tumor cells (NUGC-4; DAN-G-hCLDN18.2) (human, UniProt P56856-2 1-261)
T1 sequence (looked up): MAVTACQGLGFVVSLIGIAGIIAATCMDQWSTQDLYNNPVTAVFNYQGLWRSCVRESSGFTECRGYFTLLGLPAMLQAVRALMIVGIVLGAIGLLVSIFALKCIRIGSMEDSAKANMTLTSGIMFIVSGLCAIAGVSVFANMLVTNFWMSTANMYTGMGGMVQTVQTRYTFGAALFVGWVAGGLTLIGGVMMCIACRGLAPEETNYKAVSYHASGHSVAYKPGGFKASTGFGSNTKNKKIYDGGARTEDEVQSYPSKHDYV

T2: human Claudin 18.2 (GenScrip, P50251802) (human, UniProt P56856-2 1-261, limits assumed)
T2 construct: bought antigen coupled to the chip; also called human CLDN18.2; CLDN18.2
T2 sequence (looked up): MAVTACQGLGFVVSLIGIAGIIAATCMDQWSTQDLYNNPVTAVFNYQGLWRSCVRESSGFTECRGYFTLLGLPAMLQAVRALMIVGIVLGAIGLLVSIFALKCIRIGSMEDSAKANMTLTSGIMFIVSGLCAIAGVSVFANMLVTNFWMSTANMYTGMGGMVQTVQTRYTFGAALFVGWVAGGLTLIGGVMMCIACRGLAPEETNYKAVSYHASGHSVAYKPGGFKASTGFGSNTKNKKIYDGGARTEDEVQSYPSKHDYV


Tests used:
[1] = molecular target: T3, human CD3 complex on Jurkat cells (human, UniProt P07766 23-207; P04234 22-171; P09693 23-182); test: flow cytometry on Jurkat cells (human CD3 complex), 'Jurkat cell line binding', Example 3.2 [cont) D]
T3 construct: whole, on cells; natural CD3 complex of Jurkat T cells (also used here for CD3 on T cells of human PBMC); also called human CD3 at the cell level; CD3 on T cells
T3 sequence (P07766 23-207, chain 1 of 3): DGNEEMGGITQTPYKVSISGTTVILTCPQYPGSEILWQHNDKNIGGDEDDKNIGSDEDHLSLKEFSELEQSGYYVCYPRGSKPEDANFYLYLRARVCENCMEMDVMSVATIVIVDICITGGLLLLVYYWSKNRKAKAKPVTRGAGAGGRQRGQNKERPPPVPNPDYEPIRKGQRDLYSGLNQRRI
T3 sequence (P04234 22-171, chain 2 of 3): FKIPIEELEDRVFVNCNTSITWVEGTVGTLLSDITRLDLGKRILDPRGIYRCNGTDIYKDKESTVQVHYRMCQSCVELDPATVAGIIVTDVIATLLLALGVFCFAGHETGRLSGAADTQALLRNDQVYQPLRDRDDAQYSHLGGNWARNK
T3 sequence (P09693 23-182, chain 3 of 3): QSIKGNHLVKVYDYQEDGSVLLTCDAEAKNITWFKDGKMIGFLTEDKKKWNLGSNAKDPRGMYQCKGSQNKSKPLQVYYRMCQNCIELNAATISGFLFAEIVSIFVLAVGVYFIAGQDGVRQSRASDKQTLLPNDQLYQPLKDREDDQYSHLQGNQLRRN
Method: (§1) Jurkat cells are immortalized human T lymphocytes, which express human CD3 complex. The cell line is used to detect the binding of the antibody to the cell. The detailed operation was as follows: Jurkat cells (Promega, J1621) was inoculated into U-shaped 96-well plate, 2×10⁵ for each well. The antibodies to be detected at a series of concentration gradients (the initial concentration of antibody molecule is 500 nM, 3 folds serial dilution) was added into the corresponding cell well, incubated at 4° C. for 30 minutes, and then PBS was used to wash out the unbound part. The sheep anti-human Fc PE fluorescent second antibody (Southern Biotech, J2815-5H87B) was added, then incubated at 4° C. for 15 minutes. and detected by flow cytometry ([…] BD). […] Some of these antibodies were selected to make a further binding curve at cell level.

[2] = molecular target: T4, human CD3 E&D complex protein (Sino Biological Inc., CT026H0323H) (human, UniProt P07766 23-126; P04234 22-105); test: BLI, antibody on sensor
T4 construct: bought heterodimer; also called human CD3 protein (CT026H0323H)
T4 sequence (P07766 23-126, chain 1 of 2): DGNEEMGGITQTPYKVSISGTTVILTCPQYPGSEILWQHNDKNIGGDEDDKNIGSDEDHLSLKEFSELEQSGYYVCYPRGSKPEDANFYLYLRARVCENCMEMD
T4 sequence (P04234 22-105, chain 2 of 2): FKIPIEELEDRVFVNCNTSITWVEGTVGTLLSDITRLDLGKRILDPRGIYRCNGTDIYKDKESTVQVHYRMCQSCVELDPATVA

[3] = molecular target: T5, human CD3E&G complex (Sino Biological Inc., CT041-H0305H) (human, UniProt P07766 23-126; P09693 23-116); test: BLI, antibody on sensor
T5 construct: bought heterodimer; also called human CD3E&G antigen
T5 sequence (P07766 23-126, chain 1 of 2): as the sequence (P07766 23-126, chain 1 of 2) above
T5 sequence (P09693 23-116, chain 2 of 2): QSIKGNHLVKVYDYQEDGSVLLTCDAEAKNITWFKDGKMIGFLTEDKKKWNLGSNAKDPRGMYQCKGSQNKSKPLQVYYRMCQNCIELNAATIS

[4] = molecular target: T6, cynomolgus monkey CD3 E&D complex protein (Sino Biological Inc., CT032-00323H) (cynomolgus monkey, UniProt Q95LI5 22-117; Q95LI8 22-105); test: BLI, antibody on sensor
T6 construct: bought heterodimer
T6 sequence (Q95LI5 22-117, chain 1 of 2): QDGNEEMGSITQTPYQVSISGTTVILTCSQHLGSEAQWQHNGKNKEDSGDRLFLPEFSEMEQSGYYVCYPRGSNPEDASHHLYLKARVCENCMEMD
T6 sequence (Q95LI8 22-105, chain 2 of 2): as the sequence (P04234 22-105, chain 2 of 2) above, with I5V, N15K, I20V, S32T, D33N, I34N, T64A, S74N, V83L counted along it
Method: (§2) 100 μl SD buffer, various antibodies, human CD3 E&D complex protein (Sino Biological Inc., CT026H0323H), and cynomolgus monkey CD3 E&D complex protein (Sino Biological Inc., CT032-00323H) were added into 96-well black polystyrene semi-quantitative micro-well plate (Greiner, 675076) respectively. Fortebio Octet Red 96 was used for detection, and the sensor position was selected according to the sample position. The setting parameters of the instrument are as follows: operation steps: Baseline, Loading-1 nm, Baseline, Association and Dissociation; the operation time of each step depends on the speed of sample association and dissociation. The rotational speed is 1000 rpm and the temperature is 30° C. ForteBio Octet analysis software was used to analyze KD value.

[5] = molecular target: T4, human CD3 E&D complex protein (Sino …); test: BLI, antibody on sensor; remark: listed apart in the source
Method: as §2

[6] = molecular target: T3, human CD3 complex on Jurkat cells; test: flow cytometry on Jurkat cells (human CD3 complex), 'Jurkat cell line binding', method of Example 3.2
Method: as §1

[7] = molecular target: T4, human CD3 E&D complex protein (Sino …); test: BLI, antibody on sensor; remark: listed apart in the source
Method: The equilibrium dissociation constant (KD) of the bispecific antibody of the invention binding to human CD3 protein was determined by the Biolayer Interferometry (BLI). The affinity determination of BLI method was carried out according to the existing methods (Estep, P et al., High throughput solution based measurement of antibody-antigen affinity and affinity binding. MAbs, 2013.5 (2): 270-8).
An appropriate number of AHC (18-5060, Fortebio) sensors was taken and soaked in SD buffer (1×PBS, BSA 0.1%, Tween-20 0.05%) according to the number of samples at half an hour before the experiment. 100 μl of SD buffer, each bispecific antibody and human CD3 protein (CT026H0323H, Sino Biological Inc.) were added into 96-well black polystyrene semi-quantitative micro-well plate (Greiner, 675076). Fortebio Octet Red96 was used for detection, and the sensor position was selected according to the sample position. The setting parameters of the instrument were as follows: operation steps: Baseline, Loading-1 nm, Baseline, Association and Dissociation; the operation time of each step depended on the speed of sample combination and dissociation. The rotational speed was 1000 rpm and the temperature was 30° C. ForteBio Octet analysis software was used to analyze KD value.

[8] = molecular target: T1, human CLDN18.2 on tumor cells (NUGC-4; …); test: cell-based or functional assay
[9] = molecular target: T2, human Claudin 18.2 (GenScrip, P50251802); test: SPR, antigen on chip
Method: The equilibrium dissociation constant (KD) of binding to human CLDN18.2 was determined by surface plasma resonance (SPR). […] After coupling, 1 M ethanolamine was injected to block the remaining activation sites. According to the manufacturer's instructions, the binding and dissociation between the chip surface antigen and various bispecific antibodies in the mobile phase were detected by Biacore (GE Healthcare, T200) to obtain the affinity and kinetic constants. The antibody after serial dilution (0-100 nM, twice dilution) flowed through the chip surface in order from low concentration to high concentration, with binding time of 180 s and dissociation time of 600 s. Finally, 10 mM Glycine pH 1.5 (GE Healthcare, BR-1003-54) was used to regenerate the chip. The resulting data were analyzed using the Biacore T200 analysis software and the 1:1 combination model.

EC50 [1] [nM]	Kd [4] [nM]	koff [4] [s⁻¹]	kon [4] [M⁻¹ s⁻¹]	Kd [5] [nM]	koff [5] [s⁻¹]	kon [5] [M⁻¹ s⁻¹]	Kd [7] [nM]	koff [7] [s⁻¹]	kon [7] [M⁻¹ s⁻¹]	Kd [9] [nM]	Binder	further results
1.25	0.738	0.000941	1.28e+06	0.718	0.00247	3.44e+06					hzsp34.24 (antibody, human IgG1, lambda, L234A L235A, V domains shown, IgG1 L234A L235A, lambda; parent of the CDR mutants) VH: EVQLVESGGGLVQPGGSLKLSCAASGFTFNTYAMNWVRQASGKGLEWVGRIRSKYNNYATYYADSVKDRFTISRDDSKSTLYLQMNSLKTEDTAVYYCARHGNFGQSYVSWFAYWGQGTTVTVSS VL: QAVVTQEPSLTVSPGGTVTLTCRSSTGAVTTSNYANWVQQKPGQAPRGLIGGTNKRAPGVPARFSGSLLGDKAALTLLGAQPEDEAEYYCALWYSNLWVFGQGTKLTVLG	Kd [2]: 0.975 nM; koff [2]: 0.000234 s⁻¹; kon [2]: 240000 M⁻¹ s⁻¹; Kd [3]: 8 nM; koff [3]: 0.00179 s⁻¹; kon [3]: 224000 M⁻¹ s⁻¹
7.85	6.36	0.00183	288000	12.7	0.00505	397000					hzsp34.38 (antibody, human IgG1, kappa, L234A L235A, V domains shown, IgG1 L234A L235A, kappa) VH: EVQLVESGGGLVQPGGSLKLSCAASGFTFNTYAMNWVRQASGKGLEWVGRIRSKYNNYATYYADSVKDRFTISRDDSKSTLYLQMNSLKTEDTAVYYCARHGNFGNSYVSWFAYWGQGTTVTVSS VL: EIVMTQSPATLSVSPGERATLSCRSSTGAVTTSNYANWVQQKPGQAPRGLIGGTNKRAPGVPARFSGSGSGTEFTLTISSLQSEDFAVYYCALWYSNLWVFGQGTKLTVLR	
91.9	15.3	0.003	196000	16.8	0.00515	307000					hzsp34.40 (antibody, human IgG1, kappa, L234A L235A, V domains shown, IgG1 L234A L235A, kappa) VH: EVQLVESGGGLVQPGGSLKLSCAASGFTFNTYAMNWVRQASGKGLEWVARIRSKYNNYATYYADSVKDRFTISRDDSKSTLYLQMNSLKTEDTAVYYCARHGNFGQSYVSWFAYWGQGTTVTVSS VL: EIVMTQSPATLSVSPGERATLSCRSSTGAVTTSNYANWVQQKPGQAPRGLIGGTNKRAPGVPARFSGSGSGTEFTLTISSLQSEDFAVYYCALWYSNLWVFGQGTKLTVLR	
39.2	10.2	0.00248	243000	14.7	0.00526	357000					hzsp34.42 (antibody, human IgG1, kappa, L234A L235A, V domains shown, IgG1 L234A L235A, kappa) VH: EVQLVESGGGLVQPGGSLKLSCAASGFTFNTYAMNWVRQASGKGLEWVGRIRSKYNNYATYYADSVKDRFTISRDDSKNTLYLQMNSLKTEDTAVYYCARHGNFGNSYVSWFAYWGQGTTVTVSS VL: EIVMTQSPATLSVSPGERATLSCRSSTGAVTTSNYANWVQQKPGQAPRGLIGGTNKRAPGVPARFSGSGSGDEFTLTISSLQSEDFAVYYCALWYSNLWVFGQGTKLTVLR	
122	26.9	0.00521	194000	18.4	0.0065	353000					hzsp34.45 (antibody, human IgG1, kappa, L234A L235A, V domains shown, IgG1 L234A L235A, kappa) VH: EVQLVESGGGLVQPGGSLKLSCAASGFTFNTYAMNWVRQASGKGLEWVARIRSKYNNYATYYADSVKDRFTISRDDSKSTLYLQMNSLKTEDTAVYYCARHGNFGQSYVSWFAYWGQGTTVTVSS VL: EIVMTQSPATLSVSPGERATLSCRSSTGAVTTSNYANWVQQKPGQAPRGLIGGTNKRAPGVPARFSGSGSGDEFTLTISSLQSEDFAVYYCALWYSNLWVFGQGTKLTVLR	
											hzsp34.97 (antibody, human IgG1, lambda, L234A L235A, V domains shown, CDR mutant of hzsp34.24; IgG1 L234A L235A, lambda) VH: EVQLVESGGGLVQPGGSLKLSCAASGFTFNTYAMNWVRQASGKGLEWVGRIRSKAGGYATYYADSVKDRFTISRDDSKSTLYLQMNSLKTEDTAVYYCARHGNFGQSYVSWFAYWGQGTTVTVSS VL: QAVVTQEPSLTVSPGGTVTLTCRSSTGAVTTSNYANWVQQKPGQAPRGLIGGTNKRAPGVPARFSGSLLGDKAALTLLGAQPEDEAEYYCALWYSNLWVFGQGTKLTVLG	Kd [2]: 5.62 nM; koff [2]: 0.00156 s⁻¹; kon [2]: 278000 M⁻¹ s⁻¹; Kd [3]: 11 nM; koff [3]: 0.00148 s⁻¹; kon [3]: 135000 M⁻¹ s⁻¹; EC50 (read off the curve) [6]: ~2 nM
							7.46	0.00516	693000	0.576	030 (bispecific antibody, human IgG1, kappa, lambda, L234A L235A, 1+1, IgG1 LALA knob-into-hole; also called CLDN18.2xCD3 bispecific antibody 030; HB37A6 x HzSP34.24) heavy 1: not shown light 1: not shown heavy 2: not shown light 2: QAVVTQEPSLTVSPGGTVTLTCRSSTGAVTTSNYANWVQQKPGQAPRGLIGGTNKRAPGVPARFSGSLLGDKAALTLLGAQPEDEAEYYCALWYSNLWVFGQGTKLTVLGQPKAAPSVTLFPPSSEELQANKATLVCLISDFYPGAVTVAWKADSSPVKAGVETTTPSKQSNNKYAASSYLSLTPEQWKSHRSYSCQVTHEGSTVEKTVAPTECS	EC50 of killing of DAN-G-hCLDN18.2 cells by PBMC [8]: < 0.1 pM; EC50 of killing of NUGC-4 cells by PBMC [8]: < 0.001 nM; koff [9]: 0.0002 s⁻¹; kon [9]: 347000 M⁻¹ s⁻¹
							446	0.169	379000	0.57	033 (bispecific antibody, human IgG1, kappa, lambda, L234A L235A, 1+1, IgG1 LALA knob-into-hole; also called CLDN18.2xCD3 bispecific antibody 033; HB37A6 x HzSP34.97) heavy 1: not shown light 1: not shown heavy 2: not shown light 2: QAVVTQEPSLTVSPGGTVTLTCRSSTGAVTTSNYANWVQQKPGQAPRGLIGGTNKRAPGVPARFSGSLLGDKAALTLLGAQPEDEAEYYCALWYSNLWVFGQGTKLTVLGQPKAAPSVTLFPPSSEELQANKATLVCLISDFYPGAVTVAWKADSSPVKAGVETTTPSKQSNNKYAASSYLSLTPEQWKSHRSYSCQVTHEGSTVEKTVAPTECS	
							89.1	0.0718	807000	0.57	032 (bispecific antibody, human IgG1, kappa, lambda, L234A L235A, 1+1, IgG1 LALA knob-into-hole; also called CLDN18.2xCD3 bispecific antibody 032; HB37A6 x HzSP34.87) heavy 1: not shown light 1: not shown heavy 2: not shown light 2: QAVVTQEPSLTVSPGGTVTLTCRSSTGAVTTSNYANWVQQKPGQAPRGLIGGTNKRAPGVPARFSGSLLGDKAALTLLGAQPEDEAEYYCALWYSNLWVFGQGTKLTVLGQPKAAPSVTLFPPSSEELQANKATLVCLISDFYPGAVTVAWKADSSPVKAGVETTTPSKQSNNKYAASSYLSLTPEQWKSHRSYSCQVTHEGSTVEKTVAPTECS	EC50 of killing of DAN-G-hCLDN18.2 cells by PBMC [8]: < 0.1 pM; EC50 of killing of NUGC-4 cells by PBMC [8]: < 0.001 nM
